Broadly, the IC50 is the concentration that gives 50% inhibition. A high value points to weaker potency.

Bounds are passed on as bounds.

One experiment deals with HLA-A*02:01. Description: IEDB peptide-MHC binding, cellular MHC/competitive/fluorescence; ≥ and ≤ were set here for values at or beyond the usual limits of such assays. To be noted: source organism: Mammarenavirus whitewaterense.
For the sequence LQFIVFLLL, the IC50 came out at 51.6 µM.

Staying with this experiment, now noted: source organism: Vaccinia virus WR.
The sequence KIDKLRQIVA returned an IC50 of 32.4 µM.
Same read-out and setting: under KIEPRNILI stands 8.32 µM.
Same read-out and setting: under KIKHKGMSFV stands 15.8 µM; under KIKVTAASPM, at least 70 µM; under KILTREMGFL, 5.47 µM.
On to KITFALKKL, for which the IC50 is 17.8 µM.
Sequence KITFALKKLI showed an IC50 of 64.7 µM.
Same read-out and setting: under KLIIDREVV stands 6.63 µM; under KLIIDREVVA, 15.8 µM.
The same measure, in the same setting: the figure for KLKYFLGSGA is 7.19 µM.
KLSKLTDKKT: the IC50 was at least 70 µM.
Same read-out and setting: under KQDIVGLDL stands 14.2 µM; under KQQKKCKYCI, 56.4 µM.
On the same count and under the same terms, the figure for KQRTPGIITI is 53.2 µM.
Same read-out and setting: under KQTFGSLPA stands 18.9 µM; under KTFIIHKNL, 9.47 µM; under KTFMLPKQDI, 33.6 µM.
KTKYYKFDYI yielded an IC50 of 51.5 µM.
On to KTLDFKSKKV, for which the IC50 was 52.8 µM.
The same measure, in the same setting: the figure for KVDVELFIKA is 8 µM; for KVRIFINDRM it is 39.7 µM.
The same measure, in the same setting: the figure for KVTINNLKM is 5.74 µM.
The same measure, in the same setting: under KVTINNLKMM stands 35.7 µM; under LAGYILTVL, 11.6 µM; under LAIDFGNGA, 46.6 µM.
In turn, LARNLGLVDI showed an IC50 of at least 70 µM.
The same measure, in the same setting: under LIAFSSGTVI stands 7.63 µM; under LIANIHNHMI, 5.99 µM; under LIKKPYRSI, 59.4 µM.
Same read-out and setting: the figure for LIKLIEPVNA is 55.6 µM; for LIRPKILSM it is at least 70 µM; for LISMYCSKT it is 12.5 µM.
Regarding LITSAFDLL, the IC50 was 30.3 µM.
Sequence LITTMDGDKL returned an IC50 of at least 70 µM.
The same measure, in the same setting: under LIVRLNQCM stands 19.8 µM; under LLKDLFPKQT, at least 70 µM; under LLTKSNNGT, 13.9 µM.
Still for that read-out and setting: under LLVATDPDA stands 17.4 µM; under LQKFSFKIAI, at least 70 µM.
Same read-out and setting: under LQKVLHVTDT stands at least 70 µM.
Sequence LQTIEIIFT had an IC50 of 9.68 µM.
The same measure, in the same setting: under LTASGGKVLI stands at least 70 µM; under LTAVEHIPT, at least 70 µM.
Same read-out and setting: the figure for LTAVEHIPTM is 7.83 µM; for LTDSLSSQMT it is 11.9 µM; for LTFLSGGDL it is 18.8 µM.
Same read-out and setting: the figure for LTGSQYYFSM is 5.06 µM.
For the sequence LTKIDTTHV, the IC50 amounted to 14 µM.
Sequence LTNVVNISTI returned an IC50 of at least 70 µM.
The same measure, in the same setting: the figure for LTSGEYKQCL is 20.2 µM; for LTTLSRHIFM it is 5.83 µM.
Still for that read-out and setting: under LTVSFIDET stands at least 70 µM.
Same read-out and setting: the figure for LVATDPDADA is at least 70 µM.
The sequence LVFIKPPLIT showed an IC50 of 38.9 µM.
Still for that read-out and setting: the figure for LVITKLREHM is at least 70 µM.
Same read-out and setting: under LVIVSDGPPT stands at least 70 µM.
The same measure, in the same setting: under LVKLSSYHVV stands 14.4 µM; under LVKWPLLNI, 9.21 µM.
As for LVNAIIDSA, the concentration for half-maximal inhibition (IC50) stood at 15.6 µM.
Sequence LVNLIQAKT gave an IC50 of 44.2 µM.
For LVTKYPMDNV, the IC50 came out at 12.9 µM.
Sequence LVVSTKGDV had an IC50 of 25.8 µM.
Consider MASLLYLIL, for which the IC50 turned out to be 9.14 µM.
The same measure, in the same setting: the figure for MIKERRQITM is 24.9 µM; for MIKVGNCDET it is at least 70 µM; for MIVLITMLSI it is 6.16 µM.
MIVLPNKVRI came in with an IC50 of at least 70 µM.
MQHPREENSI showed an IC50 of 27.4 µM.
With MQRISGSNI, the IC50 amounted to 9.8 µM.
On the same count and under the same terms, under MQRISGSNIV stands 13 µM.
The sequence MTENVEEDL came in with an IC50 of 22.1 µM.
Sequence MTENVEEDLA yielded an IC50 of 24.5 µM.
Take MTPENDEEQT: the IC50 was at least 70 µM.
Still for that read-out and setting: under MVISLLSMIT stands 9.75 µM; under MVSIDEVAST, 36.8 µM; under NAECQPLQL, 14.3 µM.
NAKCIEYVT showed an IC50 of at least 70 µM.
The sequence NAKCIEYVTL returned an IC50 of 38 µM.
NAKLTSTET gave an IC50 of 8.67 µM.
Take NIGIVLSNT: the IC50 was determined as 14.6 µM.
In the case of NIGKIIMSL, the IC50 was found to be 7.04 µM.
Same read-out and setting: the figure for NIHNHMIKV is 6.46 µM; for NIIMKTPGNT it is 8.14 µM.
Still for that read-out and setting: under NIKNDVVIL stands at least 70 µM.
For NISTIQESFI, the IC50 is at least 70 µM.
As for NIVWEKKSL, the IC50 amounted to 10.9 µM.
NMNYSDDYM had an IC50 of 11.2 µM.
Still for that read-out and setting: under NQCMSANEA stands 13.3 µM; under NQCMSANEAA, 67.6 µM.
Same read-out and setting: the figure for NQHNIIVEHL is at least 70 µM.
Turning to NTCLRCSKL, the IC50 came out at 24.6 µM.
Still for that read-out and setting: the figure for NTDSEMDQRL is at least 70 µM.
On the same count and under the same terms, the figure for NTFPNITLKI is 10.1 µM.
The same measure, in the same setting: under NTIDQTANVV stands 6.56 µM; under NTRDTQQHPI, at least 70 µM.
NTSLEIEFT: the IC50 is at least 70 µM.
Turning to NVEEDLARNL, the IC50 is at least 70 µM.
Sequence NVILSPPINA yielded an IC50 of 7.25 µM.
Still for that read-out and setting: under NVTNPFDFM stands 7.94 µM; under NVVSSSTIAT, at least 70 µM; under PAAMYQYIFL, 5.57 µM.
The sequence PAVVYSTCT showed an IC50 of 5.5 µM.
Regarding PIIFGESSI, the IC50 is 34.7 µM.
Still for that read-out and setting: the figure for PIKFIAEFL is 8.24 µM; for PINAPIKTFM it is 7.62 µM; for PITIENALV it is at least 70 µM.
As for PIVISKALET, the IC50 was 26.8 µM.
The sequence PIYYVQKQLV displayed an IC50 of 18.7 µM.
On to PLITLTNVV, for which the IC50 was found to be 6.67 µM.
In turn, PLSKVHGLDV showed an IC50 of 37.9 µM.
Same read-out and setting: the figure for PMNVDNLIM is 17.4 µM; for PTASSDSLQT it is 16.7 µM.
The same measure, in the same setting: under PTELKETLL stands at least 70 µM; under PTINKSIYII, 6.11 µM.
Take PTLDNILGI: the concentration for half-maximal inhibition (IC50) is 6.67 µM.
Same read-out and setting: the figure for PTLDNILGIL is 63.7 µM.
The sequence PTMKIFYKHI showed an IC50 of at least 70 µM.
The sequence PTMNNAKLT registered an IC50 of 19.8 µM.
For the sequence PTNKLQAAV, the concentration for half-maximal inhibition (IC50) is 6.43 µM.
Still for that read-out and setting: under PTNKLQAAVM stands 29.5 µM; under PTRTLDTAI, at least 70 µM; under PVDDGPDDET, 15.2 µM.
The same measure, in the same setting: the figure for PVHDILSGL is at least 70 µM; for PVKRIIDSEV it is 33.8 µM; for PVLPICVRT it is 7.3 µM.
Turning to PVNNNIVLHT, the IC50 stood at 35.8 µM.
The same measure, in the same setting: the figure for PVSKVKSCL is 14.3 µM.
PVSTNGKIV returned an IC50 of at least 70 µM.
As to PVSTNGKIVM, the IC50 was at least 70 µM.
Still for that read-out and setting: the figure for PVTEDDYKFL is 26.7 µM; for PVVFYRSGT it is 15.4 µM.
As for QARNIQKIT, the IC50 was 6.7 µM.
On the same count and under the same terms, the figure for QIHLYYNSNI is 48.7 µM; for QISQCQRINM it is 19 µM.
Still for that read-out and setting: under QLKGFYMISL stands 9.02 µM; under QLPMEDNSDI, 38.5 µM.
Still for that read-out and setting: the figure for QMNARGVKV is 5.14 µM; for QQALSSFHTT it is 29.1 µM.
For QQHPIVVLDA, the IC50 was 14.5 µM.
Consider QQKCDMPSL, for which the IC50 came to 25 µM.
Sequence QQKKCKYCI gave an IC50 of 38.8 µM.
Same read-out and setting: the figure for QQPIKKDCMV is 18.5 µM; for QTPIQSDAGM it is 34.3 µM.
Same read-out and setting: under RIKIDKLRQI stands at least 70 µM; under RINDDSKSI, 13.4 µM; under RIVVYNPST, 6.05 µM.
RIVVYNPSTM showed an IC50 of at least 70 µM.
The same measure, in the same setting: the figure for RLSLNRTIVT is 8.65 µM; for RQLAKAIIT it is 9.8 µM; for RQSSCKMAL it is 42.7 µM.
RTDTTICLSI displayed an IC50 of 11 µM.
Still for that read-out and setting: the figure for RTKIPLSKV is at least 70 µM.
Still for that read-out and setting: under RTNRNELFQL stands 31.2 µM; under RTRGPLGIL, 51.3 µM.
On the same count and under the same terms, the figure for RVETSPRPTA is 36.5 µM; for SADDIQAIM it is 12.1 µM; for SAKRITESIT it is at least 70 µM.
Turning to SANEAAITDA, the IC50 was determined as 10.2 µM.
Same read-out and setting: the figure for SATESDAIRT is at least 70 µM; for SATVYGDKI it is 12.9 µM.
The same measure, in the same setting: under SIDRLSLNRT stands 5.1 µM; under SILRSIEGEL, 5.85 µM.
On the same count and under the same terms, under SINSATESDA stands 32.7 µM; under SINVDSTDEL, 60.3 µM; under SIPKETNELT, at least 70 µM.
Turning to SIPLMKRLT, the IC50 was at least 70 µM.
On the same count and under the same terms, the figure for SIRIKIDKL is 16.5 µM; for SISIKLTDSL it is 6.24 µM.
SISKSNAKCI had an IC50 of at least 70 µM.
Same read-out and setting: under SIVVELEPSL stands 7.93 µM.
The same measure, in the same setting: under SLKRNAEGI stands at least 70 µM.
Still for that read-out and setting: the figure for SLSKRERQL is 5.77 µM.
SLVSYIKTT came in with an IC50 of 5.37 µM.
Same read-out and setting: under SMRLLHCVT stands at least 70 µM; under SQHQHLAIM, 13.5 µM.
Turning to SQLSVLSSIT, the IC50 was 11.5 µM.
The sequence SQSERDNYIT came in with an IC50 of at least 70 µM.
Still for that read-out and setting: under SQSTDIVCET stands 26 µM; under STAVNEEWLT, 25.4 µM; under STFSIGGVI, 23.5 µM.
On the same count and under the same terms, the figure for STHRKVASST is 51.5 µM; for STILNSIDI it is 7.49 µM; for STLPNKSDV it is at least 70 µM.
Still for that read-out and setting: under STLPNKSDVL stands 46.5 µM; under STMEDRPST, 32.6 µM; under STNFLANAST, at least 70 µM.
In the case of STNGKIVMT, the IC50 is at least 70 µM.
Same read-out and setting: the figure for STPMTEYII is at least 70 µM; for STSITVNEV it is 12.6 µM; for STVASAQIHL it is 14.2 µM.
Sequence SVDCNKELM yielded an IC50 of 11.2 µM.
Still for that read-out and setting: under SVEKVGINLV stands 50 µM; under SVEPYTSNI, 17.3 µM; under SVETITEKT, at least 70 µM.

The record behind these values is the Immune Epitope Database (IEDB).
